Where a chain is given by its changes, count along the chain named.
B1: Sis1-WT (natural protein)
chain: MVKETKLYDLLGVSPSANEQELKKGYRKAALKYHPDKPTGDTEKFKEISEAFEILNDPQKREIYDQYGLEAARSGGPSFGPGGPGGAGGAGGFPGGAGGFSGGHAFSNEDAFNIFSQFFGGSSPFGGADDSGFSFSSYPSGGGAGMGGMPGGMGGMHGGMGGMPGGFRSASSSPTYPEEETVQVNLPVSLEDLFVGKKKSFKIGRKGPHGASEKTQIDIQLKPGWKAGTKITYKNQGDYNPQTGRRKTLQFVIQEKSHPNFKRDGDDLIYTLPLSFKESLLGFSKTIQTIDGRTLPLSRVQPVQPSQTSTYPGQGMPTPKNPSQRGNLIVKYKVDYPISLNDAQKRAIDENF
B2: Sis1-[change] (natural protein)
chain: B1 chain with E53A
B3: Sis1-[change] (natural protein)
chain: B1 chain with E53K
B4: Sis1-[change] (natural protein)
chain: B1 chain with N56L
B5: Sis1-[change] (natural protein)
chain: B1 chain with S49V

molecular target: Ssa1-WT (yeast, UniProt P10591 1-642); experiment: ELISA
Sequence (P10591 whole entry): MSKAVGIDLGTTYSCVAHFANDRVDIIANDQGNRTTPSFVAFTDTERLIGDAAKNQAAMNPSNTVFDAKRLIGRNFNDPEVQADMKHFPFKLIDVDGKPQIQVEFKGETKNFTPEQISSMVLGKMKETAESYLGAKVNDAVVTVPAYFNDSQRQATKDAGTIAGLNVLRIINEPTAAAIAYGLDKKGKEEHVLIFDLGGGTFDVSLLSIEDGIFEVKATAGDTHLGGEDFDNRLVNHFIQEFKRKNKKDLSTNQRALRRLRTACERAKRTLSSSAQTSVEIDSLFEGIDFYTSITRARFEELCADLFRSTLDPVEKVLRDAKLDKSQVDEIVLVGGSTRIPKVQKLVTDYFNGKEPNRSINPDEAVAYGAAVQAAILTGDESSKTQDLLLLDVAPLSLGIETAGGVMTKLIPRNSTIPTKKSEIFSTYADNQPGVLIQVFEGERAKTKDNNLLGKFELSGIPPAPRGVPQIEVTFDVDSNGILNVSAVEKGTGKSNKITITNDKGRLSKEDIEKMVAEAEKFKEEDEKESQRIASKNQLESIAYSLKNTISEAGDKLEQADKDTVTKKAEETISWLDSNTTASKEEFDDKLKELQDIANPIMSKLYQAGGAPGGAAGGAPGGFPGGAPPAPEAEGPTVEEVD

| Binder | binding result |
| --- | --- |
| B1 | binds |
| B2 | binds |
| B3 | binds |
| B4 | binds |
| B5 | binds |

molecular target: firefly luciferase (denatured) (firefly, UniProt P08659 1-550 = luciferase); experiment: ELISA
Sequence (P08659 whole entry): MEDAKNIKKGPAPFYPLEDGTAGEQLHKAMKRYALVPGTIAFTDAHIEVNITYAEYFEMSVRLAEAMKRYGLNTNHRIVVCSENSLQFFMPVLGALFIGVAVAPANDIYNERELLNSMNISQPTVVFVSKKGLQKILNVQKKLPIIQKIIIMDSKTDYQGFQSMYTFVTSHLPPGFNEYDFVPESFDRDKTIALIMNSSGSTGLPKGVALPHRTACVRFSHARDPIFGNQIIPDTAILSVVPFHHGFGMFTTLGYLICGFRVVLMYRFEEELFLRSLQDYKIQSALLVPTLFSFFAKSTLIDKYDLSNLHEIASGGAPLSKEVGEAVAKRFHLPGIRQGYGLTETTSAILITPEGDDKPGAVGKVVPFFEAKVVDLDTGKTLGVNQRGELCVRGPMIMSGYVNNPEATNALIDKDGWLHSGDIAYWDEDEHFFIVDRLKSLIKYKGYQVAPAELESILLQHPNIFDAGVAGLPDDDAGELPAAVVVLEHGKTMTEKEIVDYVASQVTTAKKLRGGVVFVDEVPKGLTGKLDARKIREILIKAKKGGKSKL

| Binder | binding result |
| --- | --- |
| B1 | binds |
| B2 | binds |
| B3 | binds |
| B4 | binds |
| B5 | binds |
